Target: T1, DDB1 (DNA damage-binding protein 1) (human, UniProt Q16531 1-1140)
T1 construct: triple beta-propeller (BPA, BPB, BPC) and CTD; also called free DDB1; purified DDB1; source: purified recombinant protein
Test: BLI; affinity-tagged DDA1 FL and fragments immobilised on the probe as ligand, free DDB1 as analyte at different concentrations; Kd from the dose response curve of maximal binding signals
Conditions: both partners purified

T1 sequence (Q16531 whole entry): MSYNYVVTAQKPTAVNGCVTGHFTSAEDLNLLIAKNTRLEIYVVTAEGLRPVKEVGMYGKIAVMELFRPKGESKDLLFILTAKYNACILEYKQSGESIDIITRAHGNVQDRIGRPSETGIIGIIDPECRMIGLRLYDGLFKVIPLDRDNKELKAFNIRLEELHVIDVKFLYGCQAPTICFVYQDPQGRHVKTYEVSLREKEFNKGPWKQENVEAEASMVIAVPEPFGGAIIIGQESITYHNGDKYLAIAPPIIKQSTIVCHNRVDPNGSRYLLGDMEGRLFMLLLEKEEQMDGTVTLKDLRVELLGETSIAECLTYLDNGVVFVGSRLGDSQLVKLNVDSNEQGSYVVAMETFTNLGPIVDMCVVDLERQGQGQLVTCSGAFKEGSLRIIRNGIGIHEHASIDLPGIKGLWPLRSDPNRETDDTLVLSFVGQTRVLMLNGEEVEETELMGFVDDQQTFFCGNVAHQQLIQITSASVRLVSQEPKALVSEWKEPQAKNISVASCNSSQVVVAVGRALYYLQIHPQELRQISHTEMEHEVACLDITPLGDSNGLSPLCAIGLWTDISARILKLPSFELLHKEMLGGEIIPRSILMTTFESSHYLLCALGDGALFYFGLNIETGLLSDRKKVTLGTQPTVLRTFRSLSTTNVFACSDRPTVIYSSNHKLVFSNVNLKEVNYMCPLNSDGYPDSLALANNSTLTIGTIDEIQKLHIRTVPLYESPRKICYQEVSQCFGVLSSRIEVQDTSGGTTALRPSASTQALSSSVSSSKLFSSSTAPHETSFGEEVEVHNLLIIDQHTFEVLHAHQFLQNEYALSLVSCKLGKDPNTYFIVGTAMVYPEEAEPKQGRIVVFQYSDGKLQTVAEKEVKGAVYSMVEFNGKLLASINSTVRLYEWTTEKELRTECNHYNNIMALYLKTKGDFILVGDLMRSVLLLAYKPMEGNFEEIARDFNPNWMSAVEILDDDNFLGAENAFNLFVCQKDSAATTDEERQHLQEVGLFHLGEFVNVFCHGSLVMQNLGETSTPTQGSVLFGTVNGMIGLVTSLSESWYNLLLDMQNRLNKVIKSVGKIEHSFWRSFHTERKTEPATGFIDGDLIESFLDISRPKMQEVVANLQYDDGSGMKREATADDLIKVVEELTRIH

B1: Affinity-tagged DDA1-NT (1-28 aa) (bio-layer interferometry) (domain or fragment)
chain: not shown
notes: DDA1, N-terminal fragment DDA1-NT (1-28 aa); it may be the GST fusion of m3; source: purified recombinant protein
B1 was tested. Which Kd did it give?
Its Kd is ~45 nM.

From paper PMC6288126, “Structural insights into DDA1 function as a core component of the CRL4-DDB1 ubiquitin ligase” (Cell Discovery, 2018)
